Here are results for 2 molecules from paper PMC3280358 (Molecular Cell, 2012).

For this assay, the target named is T1, recombinant full-length FLAG-Nbs1 (human, UniProt O60934 1-754).
T1 construct: Nbs1 (Nijmegen breakage syndrome gene product), human, full length; also called recombinant full-length Nbs1; source: recombinant, a gift from Tanya Paull
T1 sequence (looked up): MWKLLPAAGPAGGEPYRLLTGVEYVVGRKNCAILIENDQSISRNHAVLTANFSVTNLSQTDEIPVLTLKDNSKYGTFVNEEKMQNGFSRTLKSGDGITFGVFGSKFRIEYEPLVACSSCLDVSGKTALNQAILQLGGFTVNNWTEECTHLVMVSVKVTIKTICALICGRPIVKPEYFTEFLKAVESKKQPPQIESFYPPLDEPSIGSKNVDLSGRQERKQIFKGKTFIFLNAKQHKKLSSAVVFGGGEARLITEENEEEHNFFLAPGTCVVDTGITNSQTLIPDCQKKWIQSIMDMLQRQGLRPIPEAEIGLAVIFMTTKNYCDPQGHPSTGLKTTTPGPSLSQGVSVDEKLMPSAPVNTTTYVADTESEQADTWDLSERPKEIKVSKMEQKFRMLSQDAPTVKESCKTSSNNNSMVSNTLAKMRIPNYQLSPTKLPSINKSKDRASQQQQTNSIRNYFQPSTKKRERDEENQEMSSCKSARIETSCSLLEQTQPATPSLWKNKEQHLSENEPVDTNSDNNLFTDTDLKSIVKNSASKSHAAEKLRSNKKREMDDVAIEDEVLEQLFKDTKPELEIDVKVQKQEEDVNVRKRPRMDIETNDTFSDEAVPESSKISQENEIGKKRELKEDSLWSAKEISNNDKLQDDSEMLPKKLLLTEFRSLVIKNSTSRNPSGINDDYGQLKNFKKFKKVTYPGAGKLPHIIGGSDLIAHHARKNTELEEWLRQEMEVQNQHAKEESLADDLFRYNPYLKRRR
Nature of the assay: far-Western, overlay or dot blot; Rad51 NTD kinase reaction (250 μM ATP) resolved by SDS-PAGE, transferred to nitrocellulose, incubated with recombinant full-length FLAG-Nbs1 (∼ 2 μg), detected with anti-Nbs1 antibody. The conditions noted are these: both partners purified.

Residue numbers refer to the chain shown, from its start. Names may count otherwise.

B1: Rad51 NTD with S14D substitution (domain or fragment, human, UniProt Q06609 1-86, looked up)
chain: MAMQMQLEANADTDVEEESFGPQPISRLEQCGINANDVKKLEEAGFHTVEAVAYAPKKELINIKGISEAKADKILAEAAKLVPMGF
notes: also called NTD S14D; source: recombinant
Turning to B1, the binding result is reported as “binds”.

B2: Rad51 NTD with S14E substitution (domain or fragment, human, UniProt Q06609 1-86, looked up)
chain: B1 chain with D14E
notes: also called NTD S14E; source: recombinant
On to B2, for which the binding result is on record as “binds”.
